Literature values, collected in paper PMC8557391.

Molecular target: Keap1 (Homo sapiens) (UniProt Q14145)
Assay: FP

UniProt Q14145, sequence (Q14145 whole entry): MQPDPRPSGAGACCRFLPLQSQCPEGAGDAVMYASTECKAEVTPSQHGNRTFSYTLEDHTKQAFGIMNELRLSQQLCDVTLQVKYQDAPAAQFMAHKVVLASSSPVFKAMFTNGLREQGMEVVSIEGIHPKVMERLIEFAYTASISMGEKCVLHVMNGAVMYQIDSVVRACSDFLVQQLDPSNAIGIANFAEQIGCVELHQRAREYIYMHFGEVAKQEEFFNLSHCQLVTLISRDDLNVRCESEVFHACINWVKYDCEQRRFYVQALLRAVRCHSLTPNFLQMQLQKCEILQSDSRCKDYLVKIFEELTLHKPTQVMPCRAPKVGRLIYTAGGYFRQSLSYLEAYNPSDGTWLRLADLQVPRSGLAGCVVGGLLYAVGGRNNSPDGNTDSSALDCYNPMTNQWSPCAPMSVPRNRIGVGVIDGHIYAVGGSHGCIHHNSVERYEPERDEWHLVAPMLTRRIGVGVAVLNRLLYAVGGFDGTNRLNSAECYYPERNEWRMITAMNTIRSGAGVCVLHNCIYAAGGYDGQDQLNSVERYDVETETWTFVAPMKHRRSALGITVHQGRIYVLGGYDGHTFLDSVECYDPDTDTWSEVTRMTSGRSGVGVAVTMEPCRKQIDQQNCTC

Row | Substance | Kd [nM]
1 | Nrf2 10mer peptide (from UniProt Q16236) | 51
2 | Nrf2 9mer peptide (from UniProt Q16236) | 54
